This is an account of results in PMC4722774, “Characterization of a cold-active esterase from Serratia sp. and improvement of thermostability by directed evolution” (BMC Biotechnology, 2016).

By Km is commonly meant the substrate concentration at which the rate is half of its maximum. Usually kcat stands for the number of substrate molecules converted per active site and unit of time at saturation. Usually kcat/Km stands for the second-order rate constant that governs catalysis at low substrate concentration.

Data set [1] relates to T1, CC(=O)Oc1ccc([N+](=O)[O-])cc1.
T1 construct: full-length 302 residues, no signal peptide predicted; GST fusion (pGEX-6P-1) in E. coli BL21 (DE3), GST cut off by 3C protease; ~32 kDa
Briefly: purified protein. The class given is biochemical, Serratia sp. HZ15. The note with it: pH 8.5, 50 mM Tris-HCl, 10 °C, 0.01-0.3 mM substrate.

Substrate in data set [2]: CC(=O)Oc1ccc([N+](=O)[O-])cc1
The data set can be described thus: purified protein. Format: biochemical, Serratia sp. HZ15. Conditions: pH 8.5, 50 mM Tris-HCl, 10 °C, 0.01-0.3 mM substrate.

Take “EstS (Serratia sp. HZ15; A43V/D147N/R116W)”: in data set [1], the Km worked out at 87.59 ± 2.4 µM, the kcat turned out to be 2500 s⁻¹ and the kcat/Km came out at 2.86e+07 ± 3.7e+06 M⁻¹ s⁻¹.

B1: EstS (Serratia sp. HZ15) (protein)
chain: MPLDPQIARFLAEAAQAPAPASLSEMREVAHAGLLALQGEAEASGGVRDGWVTADDGRAIAIRAYTPGGATPGEPLPAMLYAHGGGWCLGSLALYDRPCQALANATGRVILSVDYRLAPEYPYPRPLEDVYQALCGVVERADEWGVDVARMAVGGDSAGGNLAAAVALLARDRKGPQIEHQLLLYPALSRAMDTASYKEYAQGYYLTREVMAFCWNTYLGEADKPQDPYAEPLHAPMLQRLPPATILSCEYDPLRDEAELYAKRLQEAGVAVRCERLPGMVHACIHMLGLTPAARVLFDKVG
notes: full-length 302 residues, no signal peptide predicted; GST fusion (pGEX-6P-1) in E. coli BL21 (DE3), GST cut off by 3C protease; ~32 kDa
As to B1, in data set [2], the Km turned out to be 74.02 ± 1.9 µM, the kcat amounted to 2340 s⁻¹ and the kcat/Km stood at 3.16e+07 ± 3.1e+06 M⁻¹ s⁻¹.
